Measured values as given in the supplement of paper PMC10126150.
± gives the standard deviation of the averaged measurements.

System: ATP
Assay: switch fluorescence ratio, 500 uM ATP over buffer (Cy3 cluster intensity, sum of 5 cycles each) (fold (ratio)); higher = stronger signal-on switching upon ATP binding; sequences stand for … in TCGTCGGCAGCGTCAGATGTGTATAAGAGACAGTTTTTTTTTTTTTTTTTTTTTTTTT…TC
Settings: aptamer strand: ATP DNA aptamer (quencher-CACCTGGGGGAGTATTGCGGAGGAAGG + anchor), 100 nM annealed; ATP concentration: 500 uM
How it was run: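 Five buffer/ATP imaging cycles were run on Cy3-labelled switching-strand clusters on a modified Illumina MiSeq flow-cell, with NaOH stripping and re-annealing between cycles. In each cycle, clusters annealed to 100 nM quencher-labelled ATP aptamer were imaged in selection buffer, then after 15 min with 500 uM ATP at 22 °C. Per cluster, the fluorescence ratio is summed target-cycle over summed buffer-cycle Cy3 intensity, averaged per switch-domain sequence. Only clusters within 100-1000 RFU were kept.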
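Note: ATP exposure 15 min at 22 °C before imaging.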

Sequence | switch fluorescence ratio
TGTTTTGGGA | 0.997 ± 0.021
TGTTTTGGGG | 0.998 ± 0.035
TGTTTTTCTA | 1 ± 0.044
TGTTTTTCTG | 0.968 ± 0.039
TGTTTTTGCT | 0.969 ± 0.033
TGTTTTTTAG | 1.01 ± 0.024
TTAAAAAAAA | 1.16 ± 0.35
TTAAAAACTG | 0.992 ± 0.033
TTAAAACGGT | 1.21 ± 0.31
TTAAAAGCGT | 1.02 ± 0.013
TTAAAAGGCT | 0.9974 ± 0.0012
TTAAAAGTAG | 1 ± 0.058
TTAAAAGTTT | 0.994 ± 0.043
TTAAAATCGA | 0.972 ± 0.072
TTAAAATCTG | 1.02 ± 0.027
TTAAAATGCT | 0.978 ± 0.011
TTAAAATGGT | 1 ± 0.052
TTAAAATGTT | 1.0072 ± 0.00057
TTAAAATTGC | 1.08 ± 0.064
TTAAAATTTT | 1.06 ± 0.06
TTAAACCGGT | 1.03 ± 0.037
TTAAACGCGG | 1.05 ± 0.066
TTAAACGCTT | 1.02 ± 0.043
TTAAACGGGA | 1.03 ± 0.024
TTAAACGTTT | 1.02 ± 0.021

Sequence | switch fluorescence ratio
TTAAAGCCGG | 0.966 ± 0.061
TTAAAGCCTT | 1.03 ± 0.053
TTAAAGCGCG | 1.04 ± 0.024
TTAAAGGCCC | 1.0667 ± 4.6e-05
TTAAATCTCG | 0.989 ± 0.046
TTAAATGGCA | 0.993 ± 0.033
TTAAATTCGA | 0.966 ± 0.036
TTAAATTGAT | 0.987 ± 0.04
TTAAATTTT | 1.01 ± 0.024
TTAAATTTTG | 1.015 ± 0.0084
TTAAATTTTT | 1.01 ± 0.041
TTAACAGTGG | 0.989 ± 0.032
TTAACAGTTT | 1.001 ± 0.0067
TTAACCGTTT | 1.09 ± 0.08
TTAACCTTTT | 1.36 ± 0.58
TTAACGCCGC | 1.13 ± 0.069
TTAACGCGGA | 1.03 ± 0.011
TTAACGGCGC | 1.04 ± 0.081
TTAACGGGGT | 1.04 ± 0.073
TTAACGGTAG | 0.983 ± 0.038
TTAACGGTTT | 0.988 ± 0.013
TTAACTCGGA | 0.996 ± 0.056
TTAACTGGAA | 0.978 ± 0.031
TTAACTTGTG | 0.986 ± 0.031
TTAAGAGACG | 1.06 ± 0.07

Sequence | switch fluorescence ratio
TTAAGATGCT | 0.997 ± 0.036
TTAAGATGGT | 0.983 ± 0.029
TTAAGCATGT | 1.01 ± 0.017
TTAAGCCTTT | 1.02 ± 0.034
TTAAGCGAAG | 0.953 ± 0.029
TTAAGCGGAG | 1.0092 ± 0.00077
TTAAGGATA | 1.01 ± 0.036
TTAAGGCAAA | 1.03 ± 0.019
TTAAGGCATT | 1.06 ± 0.03
TTAAGGCTTA | 1.01 ± 0.044
TTAAGGGGAC | 1.04 ± 0.037
TTAAGGGGAT | 1 ± 0.032
TTAAGGGGGA | 1.01 ± 0.025
TTAAGGGGGT | 1.03 ± 0.08
TTAAGGTTGG | 0.993 ± 0.031
TTAAGTATTG | 0.9956 ± 0.0079
TTAAGTGTGA | 0.982 ± 0.013
TTAAGTTAGG | 1.02 ± 0.012
TTAAGTTGTT | 0.965 ± 0.016
TTAATAACTT | 1.01 ± 0.019
TTAATAATAA | 1 ± 0.034
TTAATACTTG | 1.03 ± 0.018
TTAATAGGG | 1 ± 0.022
TTAATAGGTG | 1.14 ± 0.015
TTAATATGGA | 0.999 ± 0.012

Sequence | switch fluorescence ratio
TTAATATTAC | 1.01 ± 0.014
TTAATATTTG | 1.01 ± 0.041
TTAATCGGTT | 1.005 ± 0.01
TTAATGCGCA | 1 ± 0.019
TTAATGCTGG | 1 ± 0.033
TTAATGGCGA | 0.986 ± 0.033
TTAATGGGGG | 1.06 ± 0.25
TTAATGTGCG | 1.01 ± 0.023
TTAATGTGGG | 0.995 ± 0.014
TTAATTATCA | 0.998 ± 0.018
TTAATTCCGT | 1.02 ± 0.032
TTAATTCTGG | 0.9976 ± 0.0034
TTAATTGACA | 1.064 ± 0.0092
TTAATTGAGT | 1.012 ± 0.0018
TTAATTGATG | 1.01 ± 0.014
TTAATTGGTG | 1.021 ± 0.009
TTAATTTACA | 1.09 ± 0.044
TTAATTTACT | 1.08 ± 0.043
TTAATTTAG | 0.985 ± 0.027
TTAATTTCAG | 1.01 ± 0.023
TTAATTTCTA | 0.9901 ± 0.0058
TTACAAGAGG | 0.989 ± 0.024
TTACACGGGG | 0.969 ± 0.036
TTACAGGACG | 1.2 ± 0.22
TTACAGGGCT | 1.037 ± 0.0038
